The source of these data is article PMC10246721, “Cryo-EM structures for the Mycobacterium tuberculosis iron-loaded siderophore transporter IrtAB” (Protein & Cell, 2022).

This experiment concerns the target T1, IrtA, full length (subunit of full-length Mtb IrtAB) (Mycobacterium tuberculosis H37Rv, UniProt P9WQJ9 1-859).
T1 construct: also called Rv1348
T1 sequence: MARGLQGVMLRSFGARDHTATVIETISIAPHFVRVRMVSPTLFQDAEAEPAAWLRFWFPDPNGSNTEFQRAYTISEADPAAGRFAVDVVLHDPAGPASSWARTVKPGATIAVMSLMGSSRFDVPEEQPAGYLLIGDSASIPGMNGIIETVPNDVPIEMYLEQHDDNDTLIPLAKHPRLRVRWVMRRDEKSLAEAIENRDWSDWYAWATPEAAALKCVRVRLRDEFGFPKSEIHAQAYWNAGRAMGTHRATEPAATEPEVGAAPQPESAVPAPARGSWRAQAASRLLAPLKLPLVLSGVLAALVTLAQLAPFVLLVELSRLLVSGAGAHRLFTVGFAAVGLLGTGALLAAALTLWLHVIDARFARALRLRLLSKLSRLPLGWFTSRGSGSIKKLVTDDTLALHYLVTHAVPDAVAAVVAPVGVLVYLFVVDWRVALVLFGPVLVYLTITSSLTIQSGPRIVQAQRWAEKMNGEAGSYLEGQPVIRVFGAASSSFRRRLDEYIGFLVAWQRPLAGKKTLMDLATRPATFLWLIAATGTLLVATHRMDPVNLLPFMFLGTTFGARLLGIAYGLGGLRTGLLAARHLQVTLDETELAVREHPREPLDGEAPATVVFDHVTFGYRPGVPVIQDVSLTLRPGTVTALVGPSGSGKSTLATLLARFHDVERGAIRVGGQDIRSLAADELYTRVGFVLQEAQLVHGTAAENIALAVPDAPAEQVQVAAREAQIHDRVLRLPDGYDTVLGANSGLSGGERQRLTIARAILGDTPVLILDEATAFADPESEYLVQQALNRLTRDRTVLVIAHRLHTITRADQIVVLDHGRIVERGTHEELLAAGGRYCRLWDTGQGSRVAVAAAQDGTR
Briefly: cryo-EM structure; full-length IrtAB without nucleotide, in digitonin, 20 mmol/L MES pH 6.5, 150 mmol/L NaCl; inward-facing. As to conditions: both partners purified.

B1: IrtB with C-terminal 10x His tag (subunit of Mtb IrtAB) (natural protein)
chain: MIRTWIALVPNDHRARLIGFALLAFCSVVARAVGTVLLVPLMAALFGEAPQRAWLWLGWLSAATVAGWVLDAVTARIGIELGFAVLNHTQHDVADRLPVVRLDWFTAENTATARQAIAATGPELVGLVVNLVTPLTSAILLPAVIALALLPISWQLGVAALAGVPLLLGALWASAAFARRADTAADKANTALTERIIEFARTQQALRAARRVEPARSLVGNALASQHTATMRLLGMQIPGQLLFSIASQLALIVLAGTTAALTITGTLTVPEAIALIVVMVRYLEPFTAVSELAPALESTRATLGRIGSVLTAPVMVAGSGTWRDGAVVPRIEFDDVAFGYDGGSGPVLDGVSFCLQPGTTTAIVGPSGCGKSTILALIAGLHQPTRGRVLIDGTDVATLDARAQQAVCSVVFQHPYLFHGTIRDNVFAADPGASDDQFAQAVRLARVDELIARLPDGANTIVGEAGSALSGGERQRVSIARALLKAAPVLLVDEATSALDAENEAAVVDALAADPRSRTRVIVAHRLASIRHADRVLFVDDGRVVEDGSISELLTAGGRFSQFWRQQHEAAEWQILAE
notes: also called Rv1349
In the case of B1, the binding result is “binds”.
